Holding throughout (test): ITC; WIPI3 proteins in the sample cell, GB1-tagged ATG2A fragments in the syringe; 25 °C; 50 mM Tris-HCl pH 8.0, 100 mM NaCl, 1 mM EDTA, 1 mM DTT; model of one binding site
Details in all cases: both partners purified

The target in one experiment is Hsv2 (yeast, UniProt P50079 1-448).
In experiment [1] the target is T1, WIPI3 (full-length, wild-type) (human, UniProt Q5MNZ6 1-344).
T1 construct: human WIPI3, full length; also called wild-type WIPI3; full-length WIPI3; source: E. coli BL21(DE3), purified (Ni2+-Sepharose, size-exclusion chromatography)
T1 sequence (Q5MNZ6 whole entry): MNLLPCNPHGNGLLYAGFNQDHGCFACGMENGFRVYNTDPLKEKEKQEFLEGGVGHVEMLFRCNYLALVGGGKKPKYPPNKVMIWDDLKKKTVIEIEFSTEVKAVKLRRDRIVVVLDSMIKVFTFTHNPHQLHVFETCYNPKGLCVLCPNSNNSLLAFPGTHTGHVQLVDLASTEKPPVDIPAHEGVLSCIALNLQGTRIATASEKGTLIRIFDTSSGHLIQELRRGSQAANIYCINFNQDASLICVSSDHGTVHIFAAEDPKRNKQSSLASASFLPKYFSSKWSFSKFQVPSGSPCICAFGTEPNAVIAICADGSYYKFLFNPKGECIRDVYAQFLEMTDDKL

The next experiment concerns the target T2, WIPI3-Δloop (human, UniProt Q5MNZ6 1-344, Blade 2 B-C loop (75-80) deleted | Blade 6 C-D loop (264-281) deleted).
T2 construct: human WIPI3 with deletions of the Blade 2 B-C loop (75-80) and the Blade 6 C-D loop (264-281); also called loop-deletion mutant of WIPI3; source: E. coli BL21(DE3), purified (Ni2+-Sepharose, size-exclusion chromatography)

The text below walks through data of publication PMC7264293, “Multi-site-mediated entwining of the linear WIR-motif around WIPI β-propellers for autophagy” (Nature Communications, 2020).

T2 sequence (Q5MNZ6 other isoform, or with tags, fused parts or gaps with the stated changes): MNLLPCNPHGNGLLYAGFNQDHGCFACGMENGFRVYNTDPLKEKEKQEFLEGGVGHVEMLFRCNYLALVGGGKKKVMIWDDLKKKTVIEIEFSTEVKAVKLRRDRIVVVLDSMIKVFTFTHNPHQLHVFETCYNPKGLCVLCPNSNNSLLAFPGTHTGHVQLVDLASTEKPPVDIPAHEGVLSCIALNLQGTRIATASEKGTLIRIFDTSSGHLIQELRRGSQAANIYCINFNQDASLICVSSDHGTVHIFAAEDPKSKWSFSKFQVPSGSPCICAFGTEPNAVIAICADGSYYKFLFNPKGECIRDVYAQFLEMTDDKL
Sequence of Hsv2 (P50079 whole entry): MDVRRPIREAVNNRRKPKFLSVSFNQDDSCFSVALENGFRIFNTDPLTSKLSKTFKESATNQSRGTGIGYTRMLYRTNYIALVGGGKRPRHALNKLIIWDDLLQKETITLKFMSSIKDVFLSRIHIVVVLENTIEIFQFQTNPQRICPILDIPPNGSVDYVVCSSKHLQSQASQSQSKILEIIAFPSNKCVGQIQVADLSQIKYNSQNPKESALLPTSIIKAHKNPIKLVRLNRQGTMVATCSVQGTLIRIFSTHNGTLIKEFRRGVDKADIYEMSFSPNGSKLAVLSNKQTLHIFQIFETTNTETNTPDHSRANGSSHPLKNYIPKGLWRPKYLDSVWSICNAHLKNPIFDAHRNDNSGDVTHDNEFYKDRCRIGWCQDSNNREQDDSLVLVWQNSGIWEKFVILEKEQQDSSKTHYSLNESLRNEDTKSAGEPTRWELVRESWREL

B1: GB1-tagged ATG2A short fragment (1374-1404), the WIR-peptide (peptide, UniProt Q2TAZ0 1374-1404, looked up)
chain: PRDGEPVVTQLHPGPIVVRDGYFSRPIGSTD
notes: human ATG2A residues 1374-1404; In the crystal (PDB 6KLR) the same stretch stood fused to the N-terminus of WIPI3-Δloop without the GB1 tag; source: E. coli BL21(DE3), purified (Ni2+-Sepharose, size-exclusion chromatography), tag not cleaved
The term Kd denotes the constant that tells how readily two partners part at equilibrium. Read a high Kd as lower affinity. As a reminder, the stoichiometry N is the number of molecules, sites or subunits per partner or assembly. Take B1: the Kd with Hsv2 came to 21.5 ± 2 µM; in experiment [1] it was 8.7 ± 0.1 µM; in the experiment with WIPI3-Δloop, 6.4 ± 0.7 µM. Besides, the “stoichiometry N” value in the experiment with WIPI3-Δloop was 1.

B2: GB1-tagged WIR-peptide V1380Q (peptide, UniProt Q2TAZ0 1374-1404, looked up)
chain: PRDGEPQVTQLHPGPIVVRDGYFSRPIGSTD
notes: human ATG2A residues 1374-1404 with V1380Q; source: E. coli BL21(DE3), purified (Ni2+-Sepharose, size-exclusion chromatography), tag not cleaved
Turning to B2, in the experiment with WIPI3-Δloop, the binding result was “binds”.

B3: GB1-tagged WIR-peptide T1382A (peptide, UniProt Q2TAZ0 1374-1404, looked up)
chain: PRDGEPVVAQLHPGPIVVRDGYFSRPIGSTD
notes: human ATG2A residues 1374-1404 with T1382A; source: E. coli BL21(DE3), purified (Ni2+-Sepharose, size-exclusion chromatography), tag not cleaved
For B3, the binding result in the experiment with WIPI3-Δloop is given as “binds”.

B4: GB1-tagged WIR-peptide V1380A (peptide, UniProt Q2TAZ0 1374-1404, looked up)
chain: PRDGEPAVTQLHPGPIVVRDGYFSRPIGSTD
notes: human ATG2A residues 1374-1404 with V1380A; source: E. coli BL21(DE3), purified (Ni2+-Sepharose, size-exclusion chromatography), tag not cleaved
As to B4, the binding result with WIPI3-Δloop is given as “binds”.

B5: GB1-tagged WIR-peptide T1382Q (peptide, UniProt Q2TAZ0 1374-1404, looked up)
chain: PRDGEPVVQQLHPGPIVVRDGYFSRPIGSTD
notes: human ATG2A residues 1374-1404 with T1382Q; source: E. coli BL21(DE3), purified (Ni2+-Sepharose, size-exclusion chromatography), tag not cleaved
Take B5: in the experiment with WIPI3-Δloop, the binding result is “binds”.

B6: GB1-tagged ATG2A long fragment (1358-1404) (domain or fragment, human, UniProt Q2TAZ0 1358-1404, looked up)
chain: DSDEFCILDAPGLGIPPRDGEPVVTQLHPGPIVVRDGYFSRPIGSTD
notes: human ATG2A residues 1358-1404; source: E. coli BL21(DE3), purified (Ni2+-Sepharose, size-exclusion chromatography), tag not cleaved
As to B6, the Kd in experiment [1] came out at 8.6 ± 0.1 µM; with WIPI3-Δloop it was 6.3 ± 0.2 µM.
